Test results published in publication PMC11961692.
Substitutions are numbered along the chain they refer to. Read-outs that look alike come from different tables or passages of the source.

Legend:
hEndoU WT [1] = molecular target: T1, hEndoU WT (Homo sapiens, UniProt P21128 135-410); test: NMR
T1 sequence: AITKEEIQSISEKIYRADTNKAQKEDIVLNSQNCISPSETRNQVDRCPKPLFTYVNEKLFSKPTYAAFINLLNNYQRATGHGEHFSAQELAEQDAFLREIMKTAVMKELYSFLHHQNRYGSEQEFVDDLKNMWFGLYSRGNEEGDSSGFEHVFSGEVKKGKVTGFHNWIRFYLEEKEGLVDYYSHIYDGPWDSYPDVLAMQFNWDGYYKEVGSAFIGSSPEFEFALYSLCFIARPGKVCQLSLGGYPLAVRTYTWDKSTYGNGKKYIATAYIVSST

hEndoU H285A/R385K = molecular target: T2, hEndoU H285A/R385K (Homo sapiens, UniProt P21128 135-410, H285A;R385K); test: EMSA
T2 sequence: T1 sequence with H151A, R251K

hEndoU E284A = molecular target: T3, hEndoU E284A (Homo sapiens, UniProt P21128 135-410, E284A); test: EMSA
T3 sequence: T1 sequence with E150A

hEndoU H285A = molecular target: T4, hEndoU H285A (Homo sapiens, UniProt P21128 135-410, H285A); test: EMSA
T4 sequence: T1 sequence with H151A

hEndoU H285A/R385A = molecular target: T5, hEndoU H285A/R385A (Homo sapiens, UniProt P21128 135-410, H285A;R385A); test: EMSA
T5 sequence: T1 sequence with H151A, R251A

hEndoU WT [2] = molecular target: T1, hEndoU WT; test: NMR; remark: listed apart in the source

UUUUUU (XNA, 2'-F at all nucleotides) [2'-F (U)6]
binding result (hEndoU WT [1]): binds

CACGAGUACCAGAAAACCAAAA (ssRNA) [single-uridylate RNA]
binding result (hEndoU H285A/R385K): binds
binding result (hEndoU E284A): binds
binding result (hEndoU H285A): binds
binding result (hEndoU H285A/R385A): binds

AAGUCC (XNA, 2'-F at all nucleotides) [2'-F RNA AAGUCC]
binding result (hEndoU WT [2]): binds
